{"source": "the DeepSol protein solubility set", "data": [{"assay": "soluble on expression in E. coli; label from the status in PepcDB or PDB records", "values": [{"sequence": "MGSDKIHHHHHHMKSYRKELWFHTKRRREFINITPLLEECVRESGIKEGLLLCNAMHITASVFINDDEPGLHHDFEVWLEKLAPEKPYSQYKHNDTGEDNADAHLKRTIMGREVVIAITDRKMDLGPWEQVFYGEFDGMRPKRVLVKIIGE", "soluble on expression in E. coli": "soluble"}, {"sequence": "MGSDKIHHHHHHMKTNNSPISLLQTQNNTYNVLNNIKVHVEVRDNPYNLELDNLFQMAARINKKRSFLFVSTILGKHLPIKPAVSLASGFALAARYMEILHNTFHPFQKEILNLISLEVDEIPEEIFHYQYPLPEEVLFIGFAETATALGHSMFQCFQNAKYVHTTRESIPNLESVITFEEEHSHATSHRCYVDKSFFQNNNPIILVDDEMTTGKTALNIIRSIQQQFPREEYTIASLLDWRSNTNRRQFKQLEEELQIKIHVISLLEGRIHTTGQPLNITKTDTHIEETKPYFKKHTIICPALSYTSNYIKYTGRFGISSYEQKHIHSFAQEAGKMLQRKRIGKRTLCLGTGEFMYIPMKIAAEMGENILYQSTTRSPIHPVSNDVNYAIHNHFSYPNPEDSTITNYFYNISPHEYDEVFVFMERDVGEEALSPLLQHLQTVIPCIHIVSFSNSIEKEG", "soluble on expression in E. coli": "not soluble"}, {"sequence": "MGSDKIHHHHHHMKVKDLLNITDEDELKKYRVFRALSRFNYFPNQKQAIGELPDCFTTSSLTPEVCLRLLSGGIDNKRKNTGFAPVEYKSTRYNNIPRVLSLVHPVAHAQLCKHIYENWQDIEYISANTISRVRPEFYEVDKRIVVMNYDDPIVKDRKFNDITFGKKYIVNADIASCFDSIYSHSIPWAIKGYEFAKNNRGENEWFNQFDKFLRTTKRCETNGMPIGPATSSICLEIILARVDSRLHDLGFEHERYVDDFCCYCSTKEQADEFIIKLSELLAEYRLSLNLRKTTIIELPIASTDDWIVELNSLCIDRYNADGDLVLIGAKEAINIINKAVFLSQSHKDGSVIKFAVGFLVKKLADTAYQDVFECLLSLSFHYPILIPYLSILLGRGNLEAQHYVDKFQMIIEENALHKRSDGMAWPLHIFREHNIEPTQEIVDRVLETKDCVAITILQDICPDNENIRQFVVDISNDLDIKKDEYWLLLYQSYLLGHINNPYRDRCFIVLKDYGVNFFKTDSRTKFEMRCDNVGAVWAFKELEEIKQPQAKAVNI", "soluble on expression in E. coli": "not soluble"}, {"sequence": "MGSDKIHHHHHHMKVLLTRPQGRNQAMEEQLSLRDVAYLVTPLLSVVETTEQLNPTHLNNTDNLLFISSNAVDFAAQKLQQQFPTHCRYFAVGQATADSLAQYNINAFTSPEHSQDSEGLLSLAQLQDVDKQSFIIVRGLGGRETLAEQLQLRGANVNYWQVYQRAIPNLDGKAITQQWKSFGIDTIVVTSGEILSNLVELVPKELFAWLRACHIIVPSNRVELQAKAMGLSHISNANGANTQAILASLAL", "soluble on expression in E. coli": "not soluble"}, {"sequence": "MGSDKIHHHHHHMKVLVTGATGFIGRQVVHRLREAGAELRLASRHPERLGPGQDAMRMPDVDAPTAAFLALARGVTDVVHCAGLNNDEGNATEADFRAANAELSARLAQAAAEQASGRFIQLSSIRAVIGARVSATIDEDTIPDPQCAYGRSKREAEIRVLDAYASHGRSDATVLRLPPVYGTGMQGNLATLMRMADTGLPLPTGALTGTRSLLSAQSTAGAIWHLLSLSGRLRPIHVASDVPPVSIADIVDAFRDGFGRPTRLMAVPAGPLRIAAILLGKRTSWDSLTASQICDPSLLVSEGWLPETGTLERLAEIARLGDAQSPPLR", "soluble on expression in E. coli": "not soluble"}, {"sequence": "MGSDKIHHHHHHMKVLVTGHRGYIGAVLTPMLHQRDHDVTGLDSDIFRSCTFEGTLDDTPTMEEDVRDIVIDDLAGFDAVIHLAGLSNDPLGDYRPNLTQQINCEASVTLARLAKRAGVPRFLFASSCSNYGAAGSGFLTESAAFNPVTPYGISKVEVEHAVAPMADECFSPTFLRASTAYGLSPRIRFDLVLNNLTAWAFTTGQIYLKSDGSPWRPIVHVEDIARAYIAALEADRELVHNQAFNVGLTTENYQVREIADIVQAIVPNSRIEFAADAGPDTRCYRVDCNYIGRRLHAFKPQWTARRGVEQLYEAFCSVGLSLEDFEGERFKRIAHVKKLIRNGELDEDLRRVSVPTMALAV", "soluble on expression in E. coli": "not soluble"}, {"sequence": "MGSDKIHHHHHHMKVVPAQRCVYSFSANMAPVEEVYPGEQVVFETLDALGGSYDKIDFSKVNPATGPVFVNGVKPGDTLKVRIKRIELPRRGMIVTGKGFGVLGDEVEGFHTKELEIEKWAVLFDGVRIPIHPMVGVIGVAPQEGEYPTGTAHRHGGNMDTKEITENVTVHLPVFQEGALLALGDVHATMGDGEVCVSACEVPAKVVVEIDVSKEEIKWPVVETNDAYYIIVSLPDIEEALKEVTRETVWFIQRRKTIPFTDAYMLASLSVDVGISQLVNPAKTAKARIPKYIFTGV", "soluble on expression in E. coli": "soluble"}, {"sequence": "MGSDKIHHHHHHMLADLPIALNPHEPTSIPTQLTEQIRRLVARGILTPGDPLPSSRSLSTQLGVSRGSVVTAYDQLAGEGYLSTARGSGTTINPDLHLLKPVEIEKKETSRSVPPPLLNLSPGVPDTATLADSAWRAAWREACAKPPTHSPEQGLLRLRIEIADHLRQMRGLMVEPEQIIVTAGAREGLSLLLRTMDAPARIGVESPGYPSLRRIPQVLGHETIDVPTDESGLVPRALPHDLNALLVTPSHQYPYGGSLPADRRTALVAWAEANDALLIEDDFDSELRYVGMPLPPLRALAPDRTILLGTFSSVITPQVACGYLIAPTPQARVLATLRGILGQPVGAITQHALASYLASGALRRRTQRLRRLYRHRRSIVQDTLGDLPNTQLRPINGGLHAVLLCDKPQDLVVTTLASRGLNVTALSHYWGGTGADNGIVFGFGSHDEDTLRWVLAEISDAVSLG", "soluble on expression in E. coli": "not soluble"}, {"sequence": "MGSDKIHHHHHHMLDPSLLGHRFRRRPWAMFEVLTPLHIGNGNELTPVDFYPLGDRIIVLDTEKLINDLLRLGVEVEELLDFLRNPPGSLYLWRGYLEKLHLDPRNYARYSLRIRGELGRESSRIKEFIKIKGKPYIPGTSLKGAIRTAVLYKVLKDCGDVPTVVEALGKYGKTTGNIIRAITHPGNQDLLDYYLFYLGRGNVRGKQADDILEAIVFGFEAERRFRYEPKRDPMKALIVRDSRLIPLDNLSVYEVRVVGWGSSIPIWVEALDPGTRFEAEVKVDRELLRIGSDYFNGLLWHCLAGEDFEEFVWKAVEEFYGELAKLDNVKERDVIRLGWGSGWISMTVGILLMRKRGWERVRRKLGLGKNPHTNKIVERFPKTKRLANGQPMGWIKI", "soluble on expression in E. coli": "not soluble"}, {"sequence": "MGSDKIHHHHHHMLEPQDQKKLDELFSSMQEANGCFLGYPFAKDFDYEPLWRFMSLTGNNLGDPFEPGTYRVNSHAFECDVVDFFARLFRACSCEVWGYVTNGGTEGNIYGLYLARELYPNAVAYFSQDTHYSVSKGVRLLRLEHSVVRSQSNGEINYDDLAQKATRYRTRPAVVVANIGTTMKEGKDDTLKIRAVLHDVGISAIYVHSDAALCGPYAPLLNPKPAFDFADGADSITLSGHKFLGAPMPCGVVLSHKLHVQRVMRNIDYIGSSDTTLSGSRNAFTPIILWYAIRSLGIEGIKQTFQQCERLAAYTADELNVRGVSAWRNPNALTVVLPPVEDSIKTKWQIATQDVSHLVVTPGTTKQQADALIETISNRNR", "soluble on expression in E. coli": "not soluble"}, {"sequence": "MGSDKIHHHHHHMLERYQGEDGRRLRVEAALDSKLAKGNQALAEAIADVATLRQFKAGQALIEQGGDDNQVYILISGSCDVIVNAKVVNRRGPGDHVGEMAAIQPAQRRSATIMATEQVLAFELPEPVFANLAATYPDIYRLIAKDLARRLLQRNAVTGTPRKRIRVFVISSVEALPIARAIQTAFEYDPFTVIVWTDGVFKVANYTLQSLEDEIDNSDFAIAIAHPDDKVESRQAQWPQPRDNVIFELGLFMGRLGRARAILMEPRDEKVKLPSDLAGVTTIGYRFDPDGDTQAALAPACNRLRNHIVELGLAVG", "soluble on expression in E. coli": "not soluble"}, {"sequence": "MGSDKIHHHHHHMLGKTANGLFWMSRYLERAENTARLIETGQRIALTRLGSAEDEWVSILQSAGSLGGFREAYDTHGQDAAVDWMLRGKDNPSSIMSSIASARQNARLVRAAITGEVWEAINATYMTASDLLARKVSARDLPDVLASIRQHTALMRGMVHGTMLRNDIYDFLRIGTFLERADNTARILDVKYYVLLPSVSAVGSSIDNVQWESILRSVSARGGFRMEYGADGGPQEIAHFLIFDKRMPRSLAFCVSKIKDNLRYLNAGQPTPSPSQELVTHLENTYLSHGIEEVFDYGLHEFIEKMLELLLELAHQIQLDYRFYE", "soluble on expression in E. coli": "not soluble"}, {"sequence": "MGSDKIHHHHHHMLIEKELSELTVGHYVVKIIQQEGCFSLTAAGHIKSKAVINHLKSKNVHRVLIDDSKTLLSSSHEKSATVDAPSIVKNKELKHAKAIFDQSKSIQKKLFHDALSGSCLDLSPVVEVTNKSIDAIFNSPDSLACMLNIREKDEYLLEHSVAVSVYITIFSRYLDLERHIIEQLSIGAFLHDIGKIKIPDKILNKPGKLTVDEFTIMKTHANHSIAIIKETPGISALSLEVAALHHEKLDGSGYPFQVDGEDISQYGRMIAICDIFDALTATRVYKEGFTHGKAFSILRELAKQGQLDASLVDHFIKCVGVFPVGSLVQLKSNKLALVQERNDKDPINPQVHSFYSVKLNQFLNKQEIDLSGSEDSIVKSVRAEEFDLDMKQIVDMLLMEG", "soluble on expression in E. coli": "not soluble"}, {"sequence": "MGSDKIHHHHHHMLILYQFERTWGNPNLSHFCCKTETYLRMAGIEYAIKTTLPLFAPKGKLPYIKDGNIKLADSRFIIRHLKNRYKDLDEGLNPAEIALSLAMQRLIEEHLFWATMYTRWQYTDVNWQVNKKAIFDVLPPAIRDVAAVIYRYRIRRQIYGHGMGRHKPEEIFELGMQDIDALSACLGDKKYFLGDQPTTLDASAFGFLINTIACPIESPLKEYGLSKENLGDYIDRIKMQYYPDLQ", "soluble on expression in E. coli": "not soluble"}, {"sequence": "MGSDKIHHHHHHMLKHLDNITDCRSHINQEHDVIDICFLVLSAVISGAQSWSACHEFGTLELEWLRKYRPFTNGIPSQQSIGRIFRGVSKQSLLDALMSWVNEYRVNTGQSSIAIDGKVLKGAKASASSAALHMVTAYDTGSGLVFSAKSGASKKSELKLVQELLTCLDLKSELLTFDALHCQSQTLDYIAKEGGDCILQVKGNQPKLYEALQAQFTDYIENNPDAECFTETNKGHGRVEKRITFQCPLNLPAEIKMKWSQLKTLIAVERHRKVGNKTSIDTHFYVSSAVLTSEAFGRAIRAHWQTENNQHWLLDKLFQEDKQKMYDEDGASILAILRRWALNLVKLHPAKTSQTQKFNRACWSDDFREEIIFGTGQKV", "soluble on expression in E. coli": "not soluble"}, {"sequence": "MGSDKIHHHHHHMLKIGLLWHSTTSDNLGVGALTEAQISIINKAAVQAGVEVEYRIFGTNGNKDYFEGNPLIERGTNVSLKRILIGASDYPKKIRECDVVFDIGEGDSFADIYGFSRFLIQIVSKLVVLFQRKPLILSPQTIGPFESRFNLKVANNVMQRCTKIFVRDGLSFGYLQKNNLSVNAEEVIDVAFRLPFQRPSRDSSKVKIGLNVSGLLYNGGYTGKNQFGLSVNYPELTRSLLDQFTRIEGCEVWLVPHVLTTSFPIEDDVNVCVQLQELYPAAKLAPSFSSPSQAKSFISGMDFFLGARMHACIAAFSSGVPVVPLAYSRKFNGLFSALDYPYLGDCKVNTNEQIVGLVMDCFNSREQLKFAVEEGNKIAEKKLLRYEQYIAELLTRISNKKIVL", "soluble on expression in E. coli": "not soluble"}, {"sequence": "MGSDKIHHHHHHMLKIKTSNLRPGIKLGKDIYSYDSQLLLTSGSTITQEHLDSFARRNIEEVFILDESPRMKPERDFEDVYQDALEVVNSFMVGAMLGSPLDFQEIDKTVDLLREQAFDAIDLFRQMRLMKNKGEYLFTHSINVSLLCILIGRWLKCDRNTIRELGIAGLLHDLGKVFIENDILNKPGKLTDQEYEKIKKHTVLGYNFICQNPDMNLEVANAALMHHERVDGSGYPSGLKGQLNFYAAVVAVADVYDAITSAHSYADKRSPYSAAEILWQESFGKLDARITKVFYDKITNFYVGNKVLLSNKKEGIVIYVDPFQPTRPIVMVEDEFYNLALDRSITIRDIID", "soluble on expression in E. coli": "not soluble"}, {"sequence": "MGSDKIHHHHHHMLKPDRLRALAEALTRQNVMRLRDAAGLLGVSEMTVRRDIAGSPERFTYLGGYIVSATDVPNNAGYSLEEEKDHFAQAKAEASAVAAGLIGNNETLFIDCGTTLTTLARLIPLERHVTVVCYSLNVAEILRRKPNVRMILLGGVYVPSSDSFAGEESLEMLRRMGINKAFISAGGVDTARGVTCWNFHEVALKQAAMASAVERHLVVDQSKFGVVKAVRFSQVDDFDSIITEKGQQLRKRR", "soluble on expression in E. coli": "not soluble"}]}]}
